Test results published in the Immune Epitope Database (IEDB).

What was measured:
Assay in all cases: IEDB peptide-MHC binding, purified MHC/competitive/radioactivity; ≥ and ≤ were set here for values at or beyond the usual limits of such assays
Conditions in all cases: source organism: Bordetella pertussis
HLA-A*02:01 = target: HLA-A*02:01
HLA-B*07:02 = target: HLA-B*07:02
HLA-B*35:01 = target: HLA-B*35:01
HLA-B*53:01 = target: HLA-B*53:01
HLA-B*57:01 = target: HLA-B*57:01
HLA-B*44:03 = target: HLA-B*44:03

AALGRGHSL
IC50 (HLA-A*02:01): 32.1 µM | IC50 (HLA-B*07:02): 19.6 µM

EATQQAAGF
IC50 (HLA-B*35:01): 41.1 µM

GYEAGFSLG
IC50 (HLA-B*53:01): 26 µM

HADDGTIVI
IC50 (HLA-B*53:01): 69.9 µM

HAQGKALLY
IC50 (HLA-B*35:01): 0.385 µM

ITNETGKTY
IC50 (HLA-B*57:01): ≥ 70.4 µM

LASDGSVDF
IC50 (HLA-B*53:01): 23.1 µM

LVFSHVRGM
IC50 (HLA-B*35:01): 19.8 µM

MIYMSGLAV
IC50 (HLA-A*02:01): 2.86 µM

PGPTTDYST
IC50 (HLA-B*44:03): ≥ 78.2 µM

QITQHGGPY
IC50 (HLA-B*35:01): 44 µM

QITQHGSPY
IC50 (HLA-B*35:01): 34.5 µM

TSRTVTMRY
IC50 (HLA-B*57:01): 0.182 µM

TVQELALKL
IC50 (HLA-B*44:03): 12.5 µM

VAMKPYEVT
IC50 (HLA-B*35:01): 69.9 µM

VAVAGGRWH
IC50 (HLA-B*44:03): ≥ 78.2 µM
